{
  "source": "paper PMC10785756",
  "about": "“Hydrolysis of Antimicrobial Peptides by Extracellular Peptidases in Wastewater” (Environmental Science & Technology, 2023)",
  "key": {"[1]": {"test_system": "extracellular wastewater peptidases (pool I extracts from WWTP influents)", "test": "Absolute quantification of transformation products (TPs) formed during AMP incubation with wastewater extracts", "type": "in vitro ADME", "protocol": "We thawed enzyme extracts and transferred 1.35 mL to 2 mL protein LoBind Eppendorf tubes. For autoclaved controls, extract aliquots of 1.5 mL were autoclaved for 20 min at 121 °C and 2 bar (Wolf Sanoclav LaS-MCS-J) and 1.35 mL of the autoclaved extracts were transferred into 2 mL protein LoBind Eppendorf tubes. We then spiked 150 μL of the AMP stock solution containing all AMPs at 10 μg/mL to the enzyme extracts or 1.35 mL of ultrapure water. […] Triplicate incubations were conducted for the autoclaved and active extracts with spiked AMP. After AMP spiking, we mixed the solutions by inverting the vials and incubating them at 20 °C under horizontal shaking at 300 rpm. To stop enzymatic reactions at pre-defined sampling time points (i.e., 2 min, 30 min, 1 h, 2 h, and 4 h), we transferred 150 μL of the incubation solution to 450 μL of acetonitrile containing 1% (v/v) formic acid in 1.5 mL protein LoBind Eppendorf tubes, mixed the resulting solution by inverting the tube and by horizontally shaking it at 300 rpm for 2 min at 20 °C, and centrifuged samples at 16,000g for 1 min. This protocol step was conducted according to Luther et al.[9] We then transferred the supernatant into a fresh 1.5 mL protein LoBind Eppendorf tube and dried it in a SpeedVac vacuum concentrator (30 °C for approximately 6 h). To resolubilize AMPs, we added 150 μL of water containing 5% (v/v) acetonitrile and 0.1% (v/v) formic acid, vortexed the samples, and centrifuged them for 10 s at 1000g at room temperature. We transferred the solution into QuanRecovery HPLC vials (Waters, 186009186) and stored the samples at −20 °C until analysis. For method development, selected (and indicated) samples were sonicated (Sonorex Super RK 106, Bandelin, max 480 W) for 5 min at different steps of the sample preparation process.\nWe analyzed AMPs using UHPLC (Thermo Scientific Dionex Ultimate 3000) equipped with a Waters XSelect PREMIER CSH C18 column (article number: 186009870) coupled to HRMS (Thermo QExactive). […] We used Skyline (version 20.2.0.343) to analyze the raw data. Criteria for parent peptides and hydrolysis product identification were set as described before:[31]m/z deviation <2 ppm, MS/MS fragments with m/z deviation <5 ppm, and reasonable chromatographic peak shape. For products, the peak area had to either increase throughout the incubation experiment or first increase and then decrease.\nTo learn about the enzymatic hydrolysis pathways of AMPs that we found to be rapidly biotransformed by enzymes in wastewater extracts, we predicted all products of single peptide bond hydrolysis reactions and screened our data-dependent high-resolution mass spectrometry data for experimental evidence in support of the predicted hydrolysis products. These analyses were conducted for the AMPs with the highest biotransformation extents (i.e., >0.5 in at least two WWTPs), namely, cecropin P1, omiganan, and R8. The following requirements for transformation products (TPs) were defined: at least three amino acids, peak area either increases during the incubation experiment or first increases and then decreases, peak area exceeds that in AMP-free enzyme extract by >5-fold and that in spiked autoclaved extracts by >6-fold, and mass deviation <2 ppm from the calculated exact mass. Mass lists, mass deviations, and retention times of all TPs can be found in Tables S6–S11. We further predicted TPs formed via exocleavage mechanisms (i.e., cleavage of one or two terminal amino acids simultaneously from the C- and N- terminus of the peptide) and screened for these TPs in the HRMS data.\nFor cecropin P1, we performed absolute quantification for TPs II, III, IV, V, VI, and X and found the highest concentrations for TP III. Up to 8.8% of spiked cecropin P1 is converted to TP III during incubations with wastewater extract. For TP II, the conversion ranges from 3.7–5.7%, and for TP V and VI, conversions range between 1.5 and 4.9 and 2.1 and 2.9%, respectively. […]"}, "[2]": {"test_system": "extracellular wastewater peptidases (pool I extracts from WWTP influents)", "test": "AMP incubation with active dissolved extracellular wastewater extracts (pool I) from WWTP influents", "type": "in vitro ADME", "protocol": "We took samples from four municipal WWTPs in Austria ([…], and D). […] Where existing, we sampled the following five stages along the wastewater treatment process: influent, primary clarification tank, high-load and low-load aeration tanks, and effluent. […] We took 2 × 500 mL grab samples at each stage using a plastic beaker. We transferred the samples into 500 mL glass bottles leaving roughly one-third of the bottle empty, transported them to the lab, and pooled duplicate samples for further processing. Enzyme extraction started within 1 h after sampling. For total suspended solid (TSS) determination, we filtered 20 mL of each sample through a preweighed, dry GF/F Whatman glass microfiber filter (Sigma-Aldrich, WHA1825047) using a vacuum filtration system, dried the filters at 105 °C for 2 h, and determined the TSS contents from the weight difference. […] Otherwise, the extraction process was the same for pools I and II. All extractions were performed in triplicate, and extracts were kept on ice until further use. […] Triplicate incubations were conducted for the autoclaved and active extracts with spiked AMP. […] This protocol step was conducted according to Luther et al.[9] We then transferred the supernatant into a fresh 1.5 mL protein LoBind Eppendorf tube and dried it in a SpeedVac vacuum concentrator (30 °C for approximately 6 h). […] We transferred the solution into QuanRecovery HPLC vials (Waters, 186009186) and stored the samples at -20 °C until analysis. For method development, selected (and indicated) samples were sonicated (Sonorex Super RK 106, Bandelin, max 480 W) for 5 min at different steps of the sample preparation process. We analyzed AMPs using UHPLC (Thermo Scientific Dionex Ultimate 3000) equipped with a Waters XSelect PREMIER CSH C18 column (article number: 186009870) coupled to HRMS (Thermo QExactive). We injected 10 μL of each sample and applied a flow rate of 0.4 mL/min using the following eluent gradient (A: ultrapure water, B: […] Detection parameters were chosen as follows: […] We used Skyline (version 20.2.0.343) to analyze the raw data. […] For products, the peak area had to either increase throughout the incubation experiment or first increase and then decrease."}, "[3]": {"test": "AMP incubation with autoclaved wastewater extracts (abiotic removal / adsorption control)", "type": "physicochemical", "conditions": "wastewater extracts (pool I influent)", "protocol": "We thawed enzyme extracts and transferred 1.35 mL to 2 mL protein LoBind Eppendorf tubes. For autoclaved controls, extract aliquots of 1.5 mL were autoclaved for 20 min at 121 °C and 2 bar (Wolf Sanoclav LaS-MCS-J) and 1.35 mL of the autoclaved extracts were transferred into 2 mL protein LoBind Eppendorf tubes. We then spiked 150 μL of the AMP stock solution containing all AMPs at 10 μg/mL to the enzyme extracts or 1.35 mL of ultrapure water. […] Triplicate incubations were conducted for the autoclaved and active extracts with spiked AMP. After AMP spiking, we mixed the solutions by inverting the vials and incubating them at 20 °C under horizontal shaking at 300 rpm. […]\nWe analyzed AMPs using UHPLC (Thermo Scientific Dionex Ultimate 3000) equipped with a Waters XSelect PREMIER CSH C18 column (article number: 186009870) coupled to HRMS (Thermo QExactive). […]\nIn parallel to AMP incubations with active enzyme extracts, we conducted AMP incubations with autoclaved enzyme extracts to control for abiotic removal (e.g., due to adsorption to components in wastewater extracts). Autoclaving decreased the peptidase activity, as measured with the above-mentioned fluorogenic probe-based assay, of wastewater extracts to <3% of their original activity. […] We determined the AMP concentrations in unspiked enzyme extracts, which were below the limit of quantification (LOQ) for all AMPs in all WWTPs."}},
  "data": [
    {"substance": "cecropin P1 (SWLSKTAKKLENSAKKRISEGIAIAIQGGPR; UniProt P14661 14-44, looked up) [AMP from the parasitic nematode Ascaris suum; linear peptide of canonical amino acids]", "values": [
      {"measurement": "share of spiked AMP concentration that could be transformed into the selected TPs, considering the maximum sorption potential of each TP", "setting": "[1]", "value": "up to 31.6%"},
      {"measurement": "sum of quantified TPs as share of the initially spiked AMP concentration", "setting": "[1]", "value": 22.8, "unit": "%"},
      {"measurement": "biotransformation extent (eq 1, from concentrations in active and autoclaved extracts)", "setting": "[2]", "value": "> 0.5"},
      {"measurement": "removal by biotransformation in active wastewater extracts (in words)", "setting": "[2]", "value": "rapidly removed to nonquantifiable concentrations"},
      {"measurement": "concentration after 30 min of incubation in active extracts", "setting": "[2]; pool I influent extracts from all tested WWTPs, 20 °C, HPLC-HRMS", "value": "below the LOQ"},
      {"measurement": "detectable removal between first sampling time point and 30 min in active extracts", "setting": "[2]; pool I influent extracts, WWTPs A-D, all AMPs spiked together (150 μL of 10 μg/mL into 1.35 mL extract), 20 °C, 300 rpm, first point 2 min, then 30 min, HPLC-HRMS, triplicate incubations, maximum over WWTPs, limited by LOQ", "value": "up to 85%"},
      {"measurement": "spiked AMP removed by sorption", "setting": "[3]", "value": "up to 70%"}
    ]}
  ]
}
